# Source: the supplement of paper PMC6757056
# ± gives the standard deviation of the averaged measurements.
# B1: library; a variant is named by its letters at N, in order (parent)
# chain: GCUGUCACCGAGAAACUGUGAAGUAUAUCUUAAACCUGGGCACUUAAAAGAUAUAUGGAGUUAGUAGUGCAACCUGCUCGGUCUGAUGAGUCCNNNNNNGGACGAAACAGC
# Experiments:
# cyclic di-GMP [1] = variants of: B1; experiment: normalized RNA/DNA level without ligand (relative to sTRSVctl = 100) (log10 (% of sTRSVctl)); HEK293T; ligand: cyclic di-GMP (c-di-GMP-II aptamer); higher = less ribozyme self-cleavage, higher mRNA level; details: reporter: mCherry (pCS4076), ligand present: no
# Procedure, shortened: (§1)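 Ribozyme switch library plasmids with mCherry reporters (eGFP in certain ligand experiments) went into HEK293T cells at 4 µg per 6-well well. Where ligand was used, it was applied 1 h before transfection, and total RNA was extracted with EDTA 72 h later for reverse transcription, amplification, barcoding and sequencing. RNA level is the RNA-to-DNA read ratio normalized to a spiked-in non-cleaving sequence or to the leading sequences, then scaled and log-transformed. Scaling was ×100 with log10, the leading set comprised 25 sequences, and the cutoff was ≥100 DNA reads.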
# cyclic di-GMP [2] = variants of: B1; experiment: normalized RNA/DNA level with ligand (relative to sTRSVctl = 100) (log10 (% of sTRSVctl)); HEK293T; ligand: cyclic di-GMP (c-di-GMP-II aptamer); ligand concentration (+) RNA-Seq: 1 mM; higher = less ribozyme self-cleavage, higher mRNA level; details: reporter: mCherry (pCS4076), ligand present: yes
# Procedure, shortened: as §1
Variant,normalized RNA/DNA level without ligand (log10) (cyclic di-GMP [1]),normalized RNA/DNA level with ligand (log10) (cyclic di-GMP [2])
UGUACG,1.792 ± 0.0062,1.87 ± 0.032
CGGUCG,1.78 ± 0.042,1.9 ± 0.13
AACACC,1.56 ± 0.007,1.73 ± 0.12
UUUCAA,1.712 ± 0.0062,1.86 ± 0.092
GUAUCU,1.68 ± 0.038,1.82 ± 0.084
UCUUCC,1.79 ± 0.059,1.92 ± 0.13
AACUCG,1.66 ± 0.047,1.82 ± 0.085
CUUACC,1.77 ± 0.049,1.86 ± 0.15
GAGACA,1.8 ± 0.033,1.85 ± 0.088
UUACAC,1.73 ± 0.034,1.84 ± 0.11
CCGUCG,1.68 ± 0.0046,1.82 ± 0.13
UGGUGU,1.6 ± 0.11,1.81 ± 0.063
UUAGAU,1.7 ± 0.031,1.83 ± 0.082
GAUGGU,1.64 ± 0.057,1.8 ± 0.063
GGCGUC,1.68 ± 0.077,1.79 ± 0.17
AUAGCU,1.68 ± 0.024,1.78 ± 0.069
GCUCGA,1.57 ± 0.04,1.73 ± 0.099
ACUCCU,1.72 ± 0.051,1.9 ± 0.1
GACACG,1.7112 ± 0.0013,1.82 ± 0.12
UUCAUA,1.69 ± 0.019,1.82 ± 0.12
AGGUAG,1.54 ± 0.034,1.66 ± 0.046
GGUCGC,1.74 ± 0.034,1.87 ± 0.15
UAUGCC,1.81 ± 0.042,1.91 ± 0.15

Variant,normalized RNA/DNA level without ligand (log10) (cyclic di-GMP [1]),normalized RNA/DNA level with ligand (log10) (cyclic di-GMP [2])
CCUGAA,1.32 ± 0.099,1.61 ± 0.077
UCAAGU,1.52 ± 0.048,1.73 ± 0.1
GUCAAC,1.65 ± 0.055,1.79 ± 0.14
GGUUCA,1.6 ± 0.043,1.73 ± 0.12
CACCCG,1.81 ± 0.025,1.94 ± 0.12
CUCUCA,1.57 ± 0.056,1.78 ± 0.098
ACUAUU,1.5 ± 0.047,1.7 ± 0.11
GCUGGC,1.57 ± 0.052,1.71 ± 0.14
GACUGG,1.68 ± 0.074,1.78 ± 0.1
AUUAUA,1.58 ± 0.03,1.74 ± 0.095
ACCGGG,1.84 ± 0.027,1.91 ± 0.12
UUAUCU,1.704 ± 0.0044,1.85 ± 0.083
CCCUAC,1.71 ± 0.026,1.82 ± 0.1
CGGAUC,1.63 ± 0.036,1.72 ± 0.15
GUUCUC,1.75 ± 0.035,1.88 ± 0.068
UUGGAG,1.6 ± 0.037,1.71 ± 0.066
ACCUUA,1.67 ± 0.015,1.79 ± 0.14
GAGAAA,1.6011 ± 0.00083,1.72 ± 0.1
UUCUCC,1.83 ± 0.031,1.9 ± 0.1
UUUAGC,1.76 ± 0.054,1.86 ± 0.14
UUGCAG,1.8468 ± 0.00037,1.9 ± 0.042
AUGGAG,1.55 ± 0.1,1.68 ± 0.084
AGGGAA,1.41 ± 0.11,1.53 ± 0.061

Variant,normalized RNA/DNA level without ligand (log10) (cyclic di-GMP [1]),normalized RNA/DNA level with ligand (log10) (cyclic di-GMP [2])
CAACCG,1.817 ± 0.009,1.88 ± 0.071
UUUCAC,1.73 ± 0.093,1.84 ± 0.14
GGCCCC,1.92 ± 0.045,2 ± 0.13
AACCUG,1.57 ± 0.029,1.73 ± 0.092
GUCUUA,1.677 ± 0.0086,1.83 ± 0.15
GUCUAA,1.56 ± 0.069,1.72 ± 0.098
GAAGAC,1.563 ± 0.0055,1.76 ± 0.12
UAAUAC,1.68 ± 0.013,1.81 ± 0.075
ACAUGU,1.541 ± 0.01,1.69 ± 0.091
GAUGAU,1.56 ± 0.064,1.75 ± 0.099
GGCAGC,1.716 ± 0.013,1.82 ± 0.081
UUCUGU,1.7281 ± 0.00073,1.86 ± 0.1
CCAUCA,1.66 ± 0.052,1.77 ± 0.12
GGGACA,1.7 ± 0.042,1.75 ± 0.11
ACCAUC,1.68 ± 0.04,1.81 ± 0.13
UUCGCA,1.787 ± 0.014,1.9 ± 0.049
AGCGGA,1.52 ± 0.056,1.67 ± 0.086
CUCUUC,1.73 ± 0.052,1.87 ± 0.082
CCACCA,1.7068 ± 0.0011,1.82 ± 0.11
UGGCCG,1.9 ± 0.067,1.96 ± 0.1
GGGAAC,1.68 ± 0.031,1.84 ± 0.057
GUGUCC,1.77 ± 0.045,1.86 ± 0.094
UCCCAU,1.71 ± 0.02,1.85 ± 0.16

Variant,normalized RNA/DNA level without ligand (log10) (cyclic di-GMP [1]),normalized RNA/DNA level with ligand (log10) (cyclic di-GMP [2])
UCUGGG,1.74 ± 0.026,1.88 ± 0.059
UUCACA,1.81 ± 0.029,1.89 ± 0.16
GUACAU,1.61 ± 0.075,1.79 ± 0.074
GCCUGU,1.69 ± 0.043,1.88 ± 0.12
GACGCU,1.71 ± 0.043,1.81 ± 0.097
GAGCGA,1.735 ± 0.0089,1.85 ± 0.085
CAAGGA,1.46 ± 0.077,1.64 ± 0.064
AAGCGU,1.56 ± 0.021,1.73 ± 0.11
UCUAGC,1.69 ± 0.023,1.88 ± 0.13
UUGCUC,1.788 ± 0.015,1.86 ± 0.071
GGCCGC,1.71 ± 0.03,1.84 ± 0.097
AUGAAG,1.52 ± 0.13,1.67 ± 0.064
UGCCUC,1.77 ± 0.072,1.9 ± 0.15
UUUGCC,1.838 ± 0.011,1.89 ± 0.079
UUUAAG,1.72 ± 0.027,1.85 ± 0.11
AUGCUA,1.57 ± 0.034,1.77 ± 0.06
CAUCAC,1.67 ± 0.027,1.8 ± 0.069
GUAGCU,1.74 ± 0.065,1.83 ± 0.1
UGAUCU,1.72 ± 0.023,1.86 ± 0.11
GUCCCC,1.76 ± 0.029,1.86 ± 0.061
CAGCAU,1.56 ± 0.1,1.72 ± 0.075
AACGUU,1.65 ± 0.056,1.82 ± 0.16
GAGGGU,1.71 ± 0.024,1.75 ± 0.14

Variant,normalized RNA/DNA level without ligand (log10) (cyclic di-GMP [1]),normalized RNA/DNA level with ligand (log10) (cyclic di-GMP [2])
GCGGUG,1.6984 ± 0.00046,1.79 ± 0.13
CAGUAC,1.6 ± 0.018,1.74 ± 0.14
AGCUAG,1.54 ± 0.026,1.72 ± 0.16
AAGGAG,1.54 ± 0.14,1.67 ± 0.053
UUCUUG,1.73 ± 0.045,1.86 ± 0.11
GAGAGU,1.65 ± 0.0094,1.8 ± 0.1
AUGUGC,1.6033 ± 0.00051,1.77 ± 0.14
UUAAGU,1.71 ± 0.02,1.82 ± 0.1
UAACCG,1.72 ± 0.12,1.81 ± 0.13
AUCGCC,1.78 ± 0.013,1.88 ± 0.15
CGAGCA,1.83 ± 0.067,1.89 ± 0.12
UCGUUG,1.61 ± 0.14,1.83 ± 0.096
CACCGU,1.706 ± 0.0036,1.81 ± 0.092
UGUCAA,1.69 ± 0.048,1.82 ± 0.096
CGAGGA,1.54 ± 0.027,1.65 ± 0.084
UUGUGU,1.716 ± 0.015,1.88 ± 0.11
CAAACU,1.54 ± 0.045,1.68 ± 0.072
AUCAGG,1.62 ± 0.072,1.77 ± 0.12
GCACGC,1.66 ± 0.027,1.78 ± 0.2
AAAUCA,1.595 ± 0.0024,1.77 ± 0.098
CGCCUG,1.74 ± 0.036,1.82 ± 0.1
ACGACG,1.57 ± 0.058,1.74 ± 0.082
CUCAGG,1.8 ± 0.037,1.87 ± 0.14
